Laboratory results: patent publication US20180217151A1

Experiments:
[1] = biological target: CD8 antigen on human PBMCs (human) (UniProt P01732); test: flow cytometry, human PBMCs, biotinylated Fab 1 µg/mL, SA-APC, before washing; median of control (background) 0.1
[2] = biological target: CD8 antigen on human PBMCs (human) (UniProt P01732); test: flow cytometry, human PBMCs, biotinylated Fab 1 µg/mL, SA-APC, after five washing steps; enables reversible labeling: no
[3] = biological target: recombinant CD8 antigen (not stated (the Fab labels human PBMCs)); test: SPR (Biacore), recombinant antigen (extracellular domain) immobilized by amine coupling, Fab as analyte, 1:1 binding mass transfer model
Chain of recombinant CD8 antigen (not stated (the Fab labels human PBMCs)) (P01732 22-182): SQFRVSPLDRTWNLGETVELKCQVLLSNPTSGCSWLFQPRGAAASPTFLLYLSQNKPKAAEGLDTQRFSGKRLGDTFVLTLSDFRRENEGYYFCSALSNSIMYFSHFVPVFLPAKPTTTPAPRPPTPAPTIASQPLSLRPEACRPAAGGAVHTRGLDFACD

[4] = biological target: CD8 antigen on human PBMCs (human) (UniProt P01732); test: flow cytometry, human PBMCs, biotinylated Fab 1 µg/mL, SA-APC, after five washing steps; median of control (background) 0.1; enables reversible labeling: no
[5] = biological target: CD19 antigen on human PBMCs (human) (UniProt P15391); test: flow cytometry on human PBMCs, SA-APC median after five washing steps; background 0.2
Chain of CD19 antigen on human PBMCs (human) (P15391 20-556): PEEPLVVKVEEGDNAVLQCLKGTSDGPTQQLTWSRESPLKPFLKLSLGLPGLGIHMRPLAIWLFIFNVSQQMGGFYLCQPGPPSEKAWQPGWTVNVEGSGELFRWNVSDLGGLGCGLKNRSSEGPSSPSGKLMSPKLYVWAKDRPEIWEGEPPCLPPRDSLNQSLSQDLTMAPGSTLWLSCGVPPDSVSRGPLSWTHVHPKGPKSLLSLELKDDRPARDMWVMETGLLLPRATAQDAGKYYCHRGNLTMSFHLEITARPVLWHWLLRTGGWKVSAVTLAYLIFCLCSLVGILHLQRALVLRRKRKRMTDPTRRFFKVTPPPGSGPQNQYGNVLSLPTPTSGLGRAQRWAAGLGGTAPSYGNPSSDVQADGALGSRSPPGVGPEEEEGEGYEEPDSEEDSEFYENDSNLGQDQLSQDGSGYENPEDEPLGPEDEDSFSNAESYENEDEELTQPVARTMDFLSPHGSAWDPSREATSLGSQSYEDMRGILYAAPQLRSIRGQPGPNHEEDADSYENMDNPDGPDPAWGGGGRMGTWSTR

[6] = biological target: CD19 antigen on human PBMCs (human) (UniProt P15391); test: flow cytometry, human PBMCs, biotinylated Fab 1 µg/mL, SA-APC, before washing; median of control (background) 0.25
[7] = biological target: CD19 antigen on human PBMCs (human) (UniProt P15391); test: flow cytometry, human PBMCs, biotinylated Fab 1 µg/mL, SA-APC, after five washing steps; enables reversible labeling: yes
[8] = biological target: recombinant CD19 antigen (not stated (the Fab labels human PBMCs)) (UniProt P15391); test: SPR (Biacore), recombinant antigen (extracellular domain) immobilized by amine coupling, Fab as analyte, 1:1 binding mass transfer model
Chain of recombinant CD19 antigen (not stated (the Fab labels human PBMCs)) (P15391 20-291): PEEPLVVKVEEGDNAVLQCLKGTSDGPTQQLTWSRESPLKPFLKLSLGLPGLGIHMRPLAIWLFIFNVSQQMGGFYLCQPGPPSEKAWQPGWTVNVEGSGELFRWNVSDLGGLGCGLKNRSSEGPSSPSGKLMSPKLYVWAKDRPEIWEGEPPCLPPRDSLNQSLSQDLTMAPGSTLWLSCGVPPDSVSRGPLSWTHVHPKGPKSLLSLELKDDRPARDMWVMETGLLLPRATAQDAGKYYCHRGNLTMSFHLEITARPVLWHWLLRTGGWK

[9] = biological target: CD45RA antigen on human PBMCs (human) (UniProt P08575); test: flow cytometry, human PBMCs, biotinylated Fab 1 µg/mL, SA-APC, before washing; median of control (background) 0.1
[10] = biological target: CD45RA antigen on human PBMCs (human) (UniProt P08575); test: flow cytometry, human PBMCs, biotinylated Fab 1 µg/mL, SA-APC, after five washing steps; enables reversible labeling: yes
[11] = biological target: CD45RA antigen on human PBMCs (human) (UniProt P08575); test: flow cytometry, human PBMCs, biotinylated Fab 1 µg/mL, SA-APC, after five washing steps; median of control (background) 0.1; enables reversible labeling: yes

Chain of CD8 antigen on human PBMCs (human) (P01732 22-235): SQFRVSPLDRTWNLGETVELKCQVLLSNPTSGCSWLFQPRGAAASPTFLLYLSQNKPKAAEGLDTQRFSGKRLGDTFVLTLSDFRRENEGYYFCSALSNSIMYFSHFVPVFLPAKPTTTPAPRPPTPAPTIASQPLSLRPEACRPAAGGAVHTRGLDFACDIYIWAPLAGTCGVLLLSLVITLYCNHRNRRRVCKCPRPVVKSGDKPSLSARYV

B1: OKT8 pFab (Fab, from another filing, V domains shown)
VH: EVQLQQSGAELVKPGASVKLSCTASGFNIKDTYIHFVRQRPEQGLEWIGRIDPANDNTLYASKFQGKATITADTSSNTAYMHLCSLTSGDTAVYYCGRGYGYYVFDHWGQGTTLTVSS
VL: DVQINQSPSFLAASPGETITINCRTSRSISQYLAWYQEKPGKTNKLLIYSGSTLQSGIPSRFSGSGSGTDFTLTISGLEPEDFAMYYCQQHNENPLTFGAGTKLELK
B1 was tested, and the median value (i) [1] was 45, the % median value of the detected label after Fab removal (before = 100%) [2] was 51% and the Kd [3] was 0.62 nM. For the same binder, the koff [3] was 0.0013 s⁻¹, the kon [3] was 2.1e+06 M⁻¹ s⁻¹ and the median value after Fab removal (ii) [4] was 23.

B2: SJ25-C1 pFab (Fab, from another filing, V domains shown)
VH: EVKLQQSGAELVRPGSSVKISCKASGYAFSSYWMNWVKQRPGQGLEWIGQIYPGDGDTNYNGKFKGQATLTADKSSSTAYMQLSGLTSEDSAVYFCARKTISSVVDFYFDYWGQGTTVTVSS
VL: DIELTQSPKFMSTSVGDRVSVTCKASQNVGTNVAWYQQKPGQSPKPLIYSATYRNSGVPDRFTGSGSGTDFTLTITNVQSKDLADYFCQQYNRYPYTSGGGTKLEI
B2 gave a median of remaining detectable label after removal of Fab [5] of 1.2, a median value (i) [6] of 27 and a % median value of the detected label after Fab removal (before = 100%) [7] of 4.4%. For the same binder, the Kd [8] was 7 nM, the koff [8] was 0.0031 s⁻¹ and the kon [8] was 440000 M⁻¹ s⁻¹.

B3: MEM56-LAV rFab (Fab, V domains shown)
VH: QVQLQQSGAELAKPGASVKMSCKASGYNFTRYWMHWIKQRPGQGLEWIGYINPNTGHTEYNQKFKDKATLTADKSSSTAYMQLSSLTSEDSAVYYCATYYYGSRRDAGQGTTLTVSS
VL: QIVLTQSPAIMSASLGERVTMTCTTSSSVSSSYLHWYQQKPGSSPKLWIYSTSNLASGVPARFSGSGSGTSYSLTISTVEAEDAATYYCHQYHRSPLTFGAGTKLELKR
modifications: In the cell assay the Fab was biotinylated with a thiol-reactive reagent (e.g. maleimide-PEO2-biotin) on cysteines of the reduced disulfide bridge; positions not stated.
B3 gave a median value (i) [9] of 2.9, a % median value of the detected label after Fab removal (before = 100%) [10] of 6.9% and a median value after Fab removal (ii) [11] of 0.2.
